Results from the supplement of paper PMC12042874.
± gives the uncertainty stated by the source.

Test: amyloid nucleation score (Sup35N fusion, yeast selection) (log enrichment); library NNK3; higher = more nucleation; inactive = no reads after selection
In short: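 Growth for 7 days at 30°C on medium lacking adenine and uracil followed a 24-hour induction with 100 μM copper sulfate of psi-negative yeast expressing peptides of 20 random codons fused to Sup35N. Input and output plasmid inserts were sequenced with Illumina, and sequences with under 100 input reads were excluded. Nucleation score is the DiMSum log enrichment of output over input reads, centred on the mode score of non-aggregating sequences.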

Amyloid nucleation score, 0.763 ± 0.2:
SLNILWRSVCFTGCERGYLG

Amyloid nucleation score, 1.81 ± 0.067:
SNIMHQNVTCESFYCRSSLW

Amyloid nucleation score, -0.172 ± 0.48:
SLAYCLLEWMES

Amyloid nucleation score, 1.56 ± 0.074:
SNAFVYFRFLTFDSRFCCYY

Amyloid nucleation score, 0.937 ± 0.39:
SLNFLR

Amyloid nucleation score, 0.907 ± 0.17:
SLEGTYGHLRQELTTSPNAH

Amyloid nucleation score, 1.24 ± 0.16:
SLQISLRYKVIMQRMP

Amyloid nucleation score, 0.671 ± 0.19:
SMNFSSWWRLCCDEGSGSYT

Amyloid nucleation score, inactive:
SKCSVGVLTRFR, SKDNWSRSTYTGACLR, SKLFFRNTLVSIISM, SKLKATRTRL, SKRVSALRHKIRKNCVMNFD, SKTIYWFPPYPYVQFGCHRR, SKVACTRLDCMVFKCGTS, SLCRSLGLGLLAPYRFFTWR, SLDIWGCSKGRRWSGFKI, SLDLENILSAE, SLFFSYV, SLGEKMNVASLQAVMSC, SLGNITVPAT, SLGSNEKYWERRVSSHNWTT, SLGSPYRTRGCLNKSPPLAC, SLGVEVKCNTIP, SLGVNLSISVGKYEYSLSLK, SLIVQAL, SLKPLVYMGLST, SLLTDTFFIVLWTFT, SLMDGFLPNSGEFRIKYAVL, SLPYCGVTSLSHSWVPMAIR, SLQKWWDSLTHNLMVVTKHG, SLRSFECFSSCTGLWCMLWG, SLRSYSDVSVVRFDANSTVS, SLSILT, SLSLRWFVGCKGSDGSALQC, SLSMATFKAILSLFADTWWR, SLSNVGLANFLFSRPSLRSY, SLSPAGSGSFFGKGFWMMLA, SLSWHK, SLTALDNWCRIFAMPVLSWK, SLTSSFFSSMDVFNSALKGG, SLTVFLWVAQRVAAMRAGVL, SLVGRSCLRY, SLVMAEVITPIGLSFCSNYT, SLVNGAWLAVMNMSRCLWIF, SLWHMRVWMLCCKGPKTWRF, SLYKYRIWCMVFVVYFSQSQ, SLYYSTCIK, SMCGNWGNWASVGWNFCWRV, SMCNTSLYWLDHGADLLRSL, SMDWHAYLDRILLYVRSHS, SMLQAMEYYNIGIVYNHKIW, SMNKFKF, SMRYVTLKPNF, SMSFFMSNGRALLYCQMQFA, SMVFLASLY, SMVNWFMLRTAVVVQSRVAV, SMYRYAKETT, SNDHKITD, SNFGTNSIYMCTAMIPM, SNFTTPLHE, SNGAGC, SNMIRVRWRVAFRGWMARCL, SNSFLFYFEYSGVKLRRLGL, SNSFSSSLLCLDARD, SNSLV, SNTYCVPYRKGEELVYCGSW, SNWSWQSPW, SNWVLACYKI, SNYPWCSSSYYLGKISDLCS, SNYVKKQIALS, SPRKTNEAWPTGLSYETSVA, SPRLYETRMLPLTMGCGGDD, SPRRH

Amyloid nucleation score, -0.5 ± 1:
SNSRVGIFWDRLVFRYCRGM

Amyloid nucleation score, -0.017 ± 0.7:
SLSLWESRCQITFPLVIKVE

Amyloid nucleation score, 1.14 ± 0.085:
SLSYFLSFS

Amyloid nucleation score, 1.25 ± 0.083:
SLSVSYDVLWRIFSGNNGNW

Amyloid nucleation score, 0.607 ± 0.16:
SNSVFIWYWPEWVEDWSSWL

Amyloid nucleation score, 0.914 ± 0.17:
SLRPMLYTSYSS

Amyloid nucleation score, 1.77 ± 0.077:
SLYVSVLYIYRDY
